What was measured:
Format in all cases: cell-based, human
[1] = tested on: NK92 cells; experiment: IFN gamma secretion assay in NK92 cells (Example 10); settings: IFNγ secretion, 1 ng/ml IL-12
Method: The IFNγ-secretion stimulating activity of the unconjugated IL-18 variants and corresponding IL-18 immunocytokines was evaluated on NK92 cell line. The NK cell line NK-92 derived from a patient with lymphoma (ATCC, Cat #CRL-2407) was cultured in aMEM medium supplemented with 12.5% FCS, 12.5% horse serum (HS), 50 uM B-mercaptoEthanol, and 2 ng/ml of recombinant Human Interleukin-2 (IL-2).
On the day of experiment, cells were harvested and washed with aMEM medium without IL-2 and resuspended in medium (w/o IL-2) containing 1 ng/ml of recombinant human Interleukin-12 (SinoBiologicals, Cat #CT011-H08H). After counting, cells were seeded at 100 000 cells/well in a 384 well titer plate and incubated at 37° C./5% CO2. Sixteen 4-fold serial dilutions of IL-18 analytes were prepared in aMEM medium—1 ng/ml IL-12 and were added to the NK-92 cells. […]
(§1) After 16-20 h incubation at 37° C./5% CO2, 5 μl of supernatant were carefully transferred to a 384 microwells OPTIPlate (Perkin Elmer; Cat #6007270) and Interferon-gamma (IFNγ) levels measured using the Human IFNγ AlphaLISA Assay Kit (Perkin Elmer, Cat #AL217C). […] AlphaLisa signal was then measured on an Enspire plate reader (Perkin Elmer) using 680 and 615 nm as excitation and emission wavelengths respectively. Half maximal effective concentration (EC50) was calculated based on a variable slope, four parameter analysis using GraphPad PRISM software.

[2] = tested on: parental PD-1 negative KG-1 cells; experiment: IFN gamma secretion assay in parental PD-1 negative KG-1 cells (Example 11); settings: IFNγ secretion
Method: (§2) The KG-1 cell line was used to generate a PD-1 expressing cell line and furthermore, to measure IFNγ release upon incubation with IL-18 variants and corresponding IL-18 immunocytokines.
(§3) IFNγ release was assessed in PD-1 positive (transduced) KG-1 cells, as well as in the parental PD-1 negative cells. 0.5×10^5 cells were seeded into a 96-well U-bottom plate in culture media (RPMI, 10% FBS, 1% L-Glutamine) and stimulated with IL-18 variants/ICs for 20-24 h. The test items were diluted to 100 nM in culture medium, followed by 7 10-fold serial dilutions. The lowest concentration assessed was […]. After incubation, IFNγ release was measured using the LEGENDplex custom human mix and match KIT (Biolegend LEGENDplex™ Human IFN-γ Capture Bead B5, 13X #740942, LEGENDplex™ HU Essential Immune Response Panel Detection Abs, #740931, LEGENDplex™ Buffer Set A #740368). To this end, cell culture supernatant was collected and diluted 1:1 with Assay Buffer. Fluorescence measurements were done with a Quanteon Flow Cytometer from Acea Biosciences. For analysis, MFI values (median fluorescence intensity) were exported and plotted against concentrations used. The EC50 values (half maximal effective concentration) were calculated based on a variable slope and four parameter analysis using GraphPad PRISM software version 9.

[3] = tested on: PD-1 positive (transduced) KG-1 cells; experiment: IFN gamma secretion assay in PD-1 transduced KG-1 cells (Example 11)
Method: as §2
PD-1 expressing cell line generation: Briefly, KG-1 cells were transduced using lentiviral particles carrying the human PD-1 gene (PDCD1 NM_005018; Origene, CAT #: RC210364L3V) at a MOI (Multiplicity of Infection) of 30. Spinfection was performed at 1260 g during 90 min at 37° C. in the presence of 5 μg/ml of Polybrene and 10 mM of HEPES in complete culture media (RPMI, 10% FBS, 1% L-Glutamine). […]
as §3, with “0.5×10^5 cells were seeded into a 96-well U-bottom plate in culture media (RPMI, 10% FBS, 1% L-Glutamine) and stimulated with IL-18 variants/ICs for 20-24 h. The test items were diluted to 100 nM in culture medium, followed by 7 10-fold serial dilutions.” left out, “To this end, cell culture supernatant was collected and diluted 1:1 with Assay Buffer.” left out

[4] = tested on: parental PD-1negative NK-92 cells; experiment: IFN gamma secretion assay in parental PD-1 negative NK-92 cells (Example 17); settings: IFNγ secretion
Method: (§4) To show selectivity of the anti-PD1-IL18 immunocytokine (IC) for PD-1 positive cells, the NK-92 cell line was used to generate a PD-1 expressing cell line and furthermore, to measure IFN[…] release upon incubation with IL-18 variants and ICs.
(§5) On the day of experiment, parental PD-1negative and PD-1positive transduced cells were harvested and washed with PBS 1× and resuspended in medium (w/o IL-2) containing 1 ng/ml of recombinant human Interleukin-12 (SinoBiologicals, Cat #CT011-H08H). After counting, cells were seeded at 100 000 cells/well in a 384 well culture plate and incubated at 37° C./5% CO2. When indicated, cells were preincubated with anti-PD-1 antibody LZM-009 at 17 uM during 30 min at 37° C. […] The lowest concentration assessed was 0.8 fM.
as §1, with “microwell OptiPlate” for “microwells OPTIPlate”, “levels were” for “levels”, “AlphaLISA” for “AlphaLisa”

[5] = tested on: PD-1positive transduced NK-92 cells; experiment: IFN gamma secretion assay in PD-1 positive transduced NK-92 cells (Example 17)
Method: as §4, §5
as §1, with “microwell OptiPlate” for “microwells OPTIPlate”, “levels were” for “levels”, “AlphaLISA” for “AlphaLisa”

B1: SEQ ID NO: 30: IL-18 polypeptide: E6K, V11I, C38A, K53A, T63A, C76A, C127A (protein)
chain: YFGKLKSKLSIIRNLNDQVLFIDQGNRPLFEDMTDSDARDNAPRTIFIISMYADSQPRGMAVAISVKCEKISTLSAENKIISFKEMNPPDNIKDTKSDIIFFQRSVPGHDNKMQFESSSYEGYFLAAEKERDLFKLILKKEDELGDRSIMFTVQNED
EC50 [1]: 2 pM | EC50 [2]: 0.012 nM | EC50 ([3]; IFNγ secretion, PD-1 transduced KG-1): 8 pM | PD-1^neg/PD-1^pos EC50 ratio ([3]; KG-1 cells): 1.336 | EC50 [4]: 2.4 pM | EC50 ([5]; IFNγ secretion): 2.8 pM | PD-1^neg/PD-1^pos EC50 ratio ([5]; NK-92 cells): 0.9

From patent publication US20250186597A1, “TARGETED IMMUNE ACTIVATION WITH IL-18 IMMUNOCYTOKINES” (BRIGHT PEAK THERAPEUTICS AG, priority 2023, published 2025)
